Test results from the supplement of paper PMC11908140.

B1: library; numbered along this chain (parent)
chain: MRKPRAAVGSGHRKQAASQEGRQKHAKNNSQAKPSACDGLARQPEEVVLQASVSSYHLFRDVAEVTAFRGSLLSWYDQEKRDLPWRRRAEDEMDLDRRAYAVWVSEVMLQQTQVATVINYYTGWMQKWPTLQDLASASLEEVNQLWAGLGYYSRGRRLQEGARKVVEELGGHMPRTAETLQQLLPGVGRYTAGAIASIAFGQATGVVDGNVARVLCRVRAIGADPSSTLVSQQLWGLAQQLVDPARPGDFNQAAMELGATVCTPQRPLCSQCPVESLCRARQRVEQEQLLASGSLSGSPDVEECAPNTGQCHLCLPPSEPWDQTLGVVNFPRKASRKPPREESSATCVLEQPGALGAQILLVQRPNSGLLAGLWEFPSVTWEPSEQLQRKALLQELQRWAGPLPATHLRHLGEVVHTFSHIKLTYQVYGLALEGQTPVTTVPPGARWLTQEEFHTAAVSTAMKKVFRVYQGQQPGTCMGSKRSQVSSPCSRKKPRMGQQVLDNFFRSHISTDAHSLNSAAQ

Variants of: B1
Assay: 8OG:A repair function score (normalized; synonymous = 0, nonsense = -1) (normalized log-likelihood score); higher = more repair activity (WT-like)
Details: with 8OG:A DNA repair reporter (GFP) in HEK-293 MUTYH KO cells
Procedure, shortened: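 Per-tile Rosace fitness scores were converted to a normalized repair function score anchored on synonymous and nonsense distributions. That scale puts synonymous medians at 0 and nonsense medians at -1. Variants with starting counts under 300 counts per million were discarded. Input came from sorting viable mCherry+ MUTYH knockout HEK-293 cells, carrying lentiviral MUTYH cDNA NNN codon-scan libraries in 10 pg/ml doxycycline and an 8OG:A GFP repair reporter, into GFP+ and GFP− bins at 72 h, three replicates per tile, followed by tile amplicon sequencing.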
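Also: cells sorted at 72 h after reporter transfection.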

8OG:A repair function score: each site, then its substitutions
G356: A -0.11 | D -0.142 | C -0.0641
E350: Q -0.13 | R -0.162 | D -0.304 | P -1.12 | G -0.128 | L -0.12 | S 0.0422 | Y -0.185 | W 0.0193 | A -0.188 | C -0.0435 | K -0.17 | M 0.00868 | F -0.339 | N -0.112 | V -0.0826 | T 0.0414 | I -0.103
L349: G -1.03 | R -1.15 | C -0.018 | A -0.352 | M 0.0308 | F -0.112 | Q -1.83 | D -0.966 | E -0.993 | S -0.842 | T -0.236 | I 0.0298 | W -0.668 | P -0.901 | K -1.07 | N -0.957 | V -0.0456 | Y -0.257 | H -0.39
Q351: T -0.0645 | W -0.0304 | K 0.044 | F -0.101 | L -0.0629 | Y 0.023 | C -0.0209 | S -0.0771 | R 0.0269 | D -0.266 | N -0.125 | M 0.0542 | V 0.000574 | A -0.00592 | H 0.0225 | G -0.16 | I -0.0185 | E -0.219 | P -0.756
P352: A -0.0351 | E -0.0129 | Y -0.175 | D -0.0437 | T 0.0253 | I -0.461 | S -0.0991 | L -0.0502 | V -0.096 | K 0.00765 | R -0.124 | F -0.188 | G -0.0543 | W -0.38
A354: L -0.0264 | K -0.061 | D -0.0478 | C -0.078 | H -0.107 | E -0.0284 | M -0.19 | G -0.0387 | W -0.0982 | V 0.0356 | P 0.0108 | F -0.0389 | N -0.255 | Q -0.0822 | S -0.0885 | R -0.0437 | I -0.0486 | Y -0.11 | T -0.0601
C347: Q -1.57 | P -1.08 | E -1.34 | G -0.229 | I -0.0428 | W -1.21 | M -0.15 | R -1.15 | K -1.08 | F -0.387 | V -0.045 | D -1.26 | L -0.18 | Y -0.846 | H -1.55 | T -0.206 | S -0.457 | N -1.21
G353: P -0.17 | D 0.0347 | K -0.127 | T 0.0569 | I -0.129 | H -0.144 | V -0.123 | M -0.178 | R -0.038 | F -0.0929 | S -0.0386 | L -0.135 | E -0.227 | C -0.0857 | Q -0.109 | N -0.00787 | Y -0.16 | W -0.099 | A 0.00991
V348: H -1.31 | W -1.28 | R -1.43 | F -0.996 | I -0.0535 | L -0.351 | K -1.21 | N -1.04 | A -0.589 | P -1.11 | T -0.732 | M -0.551 | D -1.83 | Q -1.64 | S -1.25 | Y -1.02 | G -1.15 | C -0.104 | E -0.925
L355: A 0.00558 | D -0.182 | I -0.0806 | W -0.0689 | H -0.0638 | P -0.132 | M -0.0213 | S -0.0259 | F -0.0288 | Q -0.061 | N 0.0266 | K -0.0816 | R -0.00513 | G 0.0028 | Y 0.0403 | E 0.0516 | C -0.0489 | T 0.059 | V -0.0573
